Target: T1, EPO receptor (UniProt P19235 25-508, limits assumed)
T1 sequence (looked up): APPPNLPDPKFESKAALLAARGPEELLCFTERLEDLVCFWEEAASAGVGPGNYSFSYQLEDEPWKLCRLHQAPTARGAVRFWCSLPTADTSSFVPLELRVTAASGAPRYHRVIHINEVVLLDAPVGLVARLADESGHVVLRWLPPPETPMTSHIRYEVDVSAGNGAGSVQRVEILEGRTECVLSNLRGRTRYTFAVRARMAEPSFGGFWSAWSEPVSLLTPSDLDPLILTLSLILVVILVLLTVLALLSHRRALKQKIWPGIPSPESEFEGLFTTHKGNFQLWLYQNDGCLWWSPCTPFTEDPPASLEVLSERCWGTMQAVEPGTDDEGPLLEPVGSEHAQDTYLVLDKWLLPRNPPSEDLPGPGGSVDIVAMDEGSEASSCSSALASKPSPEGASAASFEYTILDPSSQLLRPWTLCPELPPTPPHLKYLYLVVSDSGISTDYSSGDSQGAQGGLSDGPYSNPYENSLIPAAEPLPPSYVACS
Test: cell-based or functional assay

ED50, TF-1 cell proliferation (3H-thymidine incorporation); S.D. 0.96; N 10: 2.4 ng/mL
Substance: EPO (Aranesp®) (ligand)

From patent publication US20050192211A1 (Merck KGaA, published 2005)
